Laboratory results reported in article PMC9352680, “A comprehensive thermodynamic model for RNA binding by the Saccharomyces cerevisiae Pumilio protein PUF4”.
Positions count from the first letter of the chain named. In names and notes the source's numbering stands.

T1: PUF4 RNA-binding domain (Saccharomyces cerevisiae, UniProt P25339 537-888)
T1 sequence: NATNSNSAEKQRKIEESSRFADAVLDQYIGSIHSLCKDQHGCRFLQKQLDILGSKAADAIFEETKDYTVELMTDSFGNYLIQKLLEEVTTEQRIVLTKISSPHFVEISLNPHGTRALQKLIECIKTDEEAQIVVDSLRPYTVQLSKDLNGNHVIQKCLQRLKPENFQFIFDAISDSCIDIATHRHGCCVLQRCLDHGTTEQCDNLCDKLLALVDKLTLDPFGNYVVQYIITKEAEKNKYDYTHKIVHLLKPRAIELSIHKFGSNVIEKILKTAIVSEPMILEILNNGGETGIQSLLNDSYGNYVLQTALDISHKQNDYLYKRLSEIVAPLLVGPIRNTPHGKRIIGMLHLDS

B1: Ib_S1_P5E.1_K5.1_C5.1_H5.1_[G2A]_A5.1_[T6A]_F5.1_T5.1 (ssRNA)
RNA: UCUCUUUAUAUAAUUAUCUCUU
B2: Id_ii_S4_P3E.4_K3.3_C3.2_[T-1C]_H3.3_A3.1_F3.1_T3.2_[A10T] (ssRNA)
RNA: UUUGACAACUGAUCGUUCUUUCUCCACACUAUAUUUUCUUUCUCGAUCAGUUGUCUUU
B3: Id_ii_S4_P3E.4_K3.3_C3.2_H3.3_A3.1_F3.1_T3.2_[A10C] (ssRNA)
RNA: B2 RNA with C25U, U35C
B4: Id_ii_S4_P3E.4_K3.3_C3.2_H3.3_A3.1_F3.1_T3.2_[T9C] (ssRNA)
RNA: B2 RNA with C25U, U34C, U35A
B5: Id_ii_S4_P3E.4_K3.3_C3.2_[T-1A]_H3.3_A3.1_F3.1_T3.2_[T9C]_[A10C] (ssRNA)
RNA: B2 RNA with C25A, U34C, U35C
B6: Id_ii_S4_P3E.4_K3.3_C3.2_[T-1A]_H3.3_A3.1_F3.1_T3.2 (ssRNA)
RNA: B2 RNA with C25A, U35A
B7: Id_ii_S4_P3E.4_K3.3_C3.2_H3.3_A3.1_F3.1_T3.2_[T9C]_[A10T] (ssRNA)
RNA: B2 RNA with C25U, U34C
B8: Ib_S1_P5E.1_K5.1_C5.1_H5.1_[G2A]_A5.1_[T6C]_F5.1_T5.1 (ssRNA)
RNA: UCUCUUUAUAUCAUUAUCUCUU
B9: Ib_S1_P5E.1_K5.1_C5.1_H5.1_[G2T]_A5.1_[T6A]_F5.1_T5.1 (ssRNA)
RNA: UCUCUUUUUAUAAUUAUCUCUU
B10: Ib_S1_P5E.1_K5.1_C5.1_H5.1_[G2C]_A5.1_[T6C]_F5.1_T5.1 (ssRNA)
RNA: UCUCUUUCUAUCAUUAUCUCUU
B11: Ib_S1_P5E.1_K5.1_C5.1_H5.1_[G2C]_A5.1_[A7T]_F5.1_T5.1 (ssRNA)
RNA: UCUCUUUCUAUUUUUAUCUCUU
B12: Id_ii_S4_P4E.2_K4.1_C4.2_[C-2G]_[T-1C]_H4.1_A4.1_F4.1_T4.2_[G10C]_[T11C] (ssRNA)
RNA: UUUGACAACUGAUCGUUCUUUCUGCUGUAUAUUACCUUCUUUCUCGAUCAGUUGUCUUU
B13: Id_ii_S4_P4E.3_K4.2_C4.2_[C-2T]_[T-1G]_H4.2_A4.1_F4.1_T4.2_[G10A]_[T11C] (ssRNA)
RNA: B12 RNA with G24U, C25G, G27A, C35A
B14: Id_ii_S4_P4E.2_K4.1_C4.2_[C-2T]_[T-1A]_H4.1_A4.1_F4.1_T4.2 (ssRNA)
RNA: B12 RNA with G24U, C25A, C35G, C36U
B15: Id_ii_S4_P4E.2_K4.1_C4.2_H4.1_A4.1_F4.1_T4.2_[G10A]_[T11A] (ssRNA)
RNA: B12 RNA with G24C, C25U, C35A, C36A
B16: Id_ii_S4_P4E.2_K4.1_C4.2_[C-2A]_[T-1C]_H4.1_A4.1_F4.1_T4.2_[G10T]_[T11C] (ssRNA)
RNA: B12 RNA with G24A, C35U
B17: Id_ii_S4_P4E.3_K4.2_C4.2_[C-2T]_[T-1C]_H4.2_A4.1_F4.1_T4.2_[G10A] (ssRNA)
RNA: B12 RNA with G24U, G27A, C35A, C36U
B18: Id_ii_S4_P4E.3_K4.2_C4.2_[C-2G]_H4.2_A4.1_F4.1_T4.2_[G10T] (ssRNA)
RNA: B12 RNA with C25U, G27A, C35U, C36U
B19: Id_ii_S4_P4E.2_K4.1_C4.2_[T-1A]_H4.1_A4.1_F4.1_T4.2_[G10A] (ssRNA)
RNA: B12 RNA with G24C, C25A, C35A, C36U
B20: Id_ii_S4_P4E.3_K4.2_C4.2_[C-2G]_[T-1C]_H4.2_A4.1_F4.1_T4.2_[G10T]_[T11C] (ssRNA)
RNA: B12 RNA with G27A, C35U
B21: Id_ii_S4_P4E.2_K4.1_C4.2_H4.1_A4.1_F4.1_T4.2_[G10A] (ssRNA)
RNA: B12 RNA with G24C, C25U, C35A, C36U
B22: Id_ii_S4_P4E.2_K4.1_C4.2_[C-2G]_[T-1C]_H4.1_A4.1_F4.1_T4.2_[G10T] (ssRNA)
RNA: B12 RNA with C35U, C36U
B23: Id_ii_S4_P4E.2_K4.1_C4.2_[C-2G]_H4.1_A4.1_F4.1_T4.2_[G10T]_[T11A] (ssRNA)
RNA: B12 RNA with C25U, C35U, C36A
B24: Id_ii_S4_P4E.2_K4.1_C4.2_[C-2T]_[T-1A]_H4.1_A4.1_F4.1_T4.2_[G10T]_[T11C] (ssRNA)
RNA: B12 RNA with G24U, C25A, C35U
B25: Id_ii_S4_P4E.3_K4.2_C4.2_[C-2T]_[T-1C]_H4.2_A4.1_F4.1_T4.2_[G10C]_[T11A] (ssRNA)
RNA: B12 RNA with G24U, G27A, C36A
B26: Id_ii_S4_P4E.2_K4.1_C4.2_[T-1C]_H4.1_A4.1_F4.1_T4.2_[G10A]_[T11A] (ssRNA)
RNA: B12 RNA with G24C, C35A, C36A
B27: Id_ii_S4_P4E.3_K4.2_C4.2_[C-2G]_H4.2_A4.1_F4.1_T4.2_[G10C] (ssRNA)
RNA: B12 RNA with C25U, G27A, C36U
B28: Id_ii_S4_P4E.3_K4.2_C4.2_[C-2G]_[T-1G]_H4.2_A4.1_F4.1_T4.2_[G10A] (ssRNA)
RNA: B12 RNA with C25G, G27A, C35A, C36U
B29: Id_ii_S4_P4E.2_K4.1_C4.2_[T-1C]_H4.1_A4.1_F4.1_T4.2_[G10T]_[T11C] (ssRNA)
RNA: B12 RNA with G24C, C35U

Target: T1, PUF4 RNA-binding domain
Experiment: Mg; RNA-MaP; 20 mM Na-HEPES pH 7.4, 30 mM KOAc, 0.75 mM MgCl2, 0.1% Tween-20, 5% glycerol, 0.1 mg/mL BSA, 2 mM DTT; 25 C; 0.0125-409.6 nM protein
Settings: tags: N-His6-TEV cleaved; C-SNAP kept, Cy3B-labelled; label: tethered on chip by stalled RNA polymerase

Row | Binder | Kd
1 | B1 | 1010 nM
2 | B2 | 1050 nM
3 | B3 | 926 nM
4 | B4 | 597 nM
5 | B5 | 2160 nM
6 | B6 | 291 nM
7 | B7 | 1380 nM
8 | B8 | 752 nM
9 | B9 | > 2300 nM
10 | B10 | > 2300 nM
11 | B11 | > 2300 nM
12 | B12 | 1.35 nM
13 | B13 | 3.87 nM
14 | B14 | 0.659 nM
15 | B15 | 0.422 nM
16 | B16 | 0.306 nM
17 | B17 | 10.2 nM
18 | B18 | 10.6 nM
19 | B19 | 0.453 nM
20 | B20 | 19.6 nM
21 | B21 | 0.324 nM
22 | B22 | 0.295 nM
23 | B23 | 0.515 nM
24 | B24 | 0.343 nM
25 | B25 | 12.6 nM
26 | B26 | 0.435 nM
27 | B27 | 38.1 nM
28 | B28 | 125 nM
29 | B29 | 0.317 nM
